Data taken from the nanobody polyreactivity screen of Harvey et al. (2022).

experiment: yeast display, Sf9 membrane polyspecificity reagent, FACS + sequencing; frameworks hold sequencing errors
How it was run: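 After 36–48 hours of galactose induction, yeast (Saccharomyces cerevisiae BJ5465) displaying a synthetic nanobody library were stained at 4 °C for 1 hour with 10% biotinylated, detergent-solubilized Sf9 membrane reagent. Streptavidin microbeads enriched the stained cells before FACS sorting into low and high (top ~1%) gates on anti-HA and streptavidin fluorescence. Each clone's polyreactivity label reflects its gate of origin.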

Question: Which “polyreactivity (PSR sort gate)” value does the source give for “QVQLVESGGGLVQAGGSLRLSCAASGRTFRAYALGWYRQAPGKERELVARISWSGGNTYNADSVKGRFTISRDHAKNTVYLQMNSLKPEDTAVYYCAKTYYPYPAQIYTGYSWGQGTQVTVSS” here?
Answer: low polyreactivity

Question: For “QVQLVESGGGLVQAGGSLRLSCAASGRTFRAYAMGGYRQAPGKERELVAAITSGGSTYYADSVKGRFTISRDNAKNTVYLQMNSLKPEDTAVYYCNRRGWSRTHQYDYWGQGTQVTESS”, which “polyreactivity (PSR sort gate)” value is on record?
Answer: high polyreactivity

Question: With “QVQLVESGGGLVQAGGSLRLSCAASGRTFRAYAMGWYRQAPGKEMELVAGITSGGSTNYADSVKGRFTISRDNAKNTVYLQMNSLKPEDTAVYYCAARRGTYRYRYDYWGQGTQVTVSS” as the sequence, how does the “polyreactivity (PSR sort gate)” value read?
Answer: high polyreactivity

Question: Which “polyreactivity (PSR sort gate)” value does the source give for “QVQLVESGGGLVQAGGSLRLSCAASGRTFRAYAMGWYRQAPGKERELVAAIRSGTSTNYADSVKGRFTISRDNAKNTVYLQMNSLKPEDTAVYYCAAEWRKTYRYFTFGYWGQGTQVTVSS” here?
Answer: high polyreactivity

Question: Which “polyreactivity (PSR sort gate)” value does the source give for “QVQLVESGGGLVQAGGSLRLSCAASGRTFRAYAMGWYRQAPGKERELVAAISRSGGRTYYADSVKGRFIISRDNAKITVYLQMNSLKPEDTAVYYCAAGSNIWGQGTQVTVSS” here?
Answer: high polyreactivity

Question: With “QVQLVESGGGLVQAGGSLRLSCAASGRTFRDNAMGWYRQAPGKERELVAAISRRGGSTYYADSVKGRFTISRDNAKNTVYLQMNSLKPEDTAVYYCAADRPDGWVDYWGQGTQVTVSS” as the sequence, how does the “polyreactivity (PSR sort gate)” value read?
Answer: low polyreactivity

Question: For “QVQLVESGGGLVQAGGSLRLSCAASGRTFRDNTMGWYRQAPGKERELVAGISSSTGSTYYADSVKGRFTISRDNAKNTVYLQMNSLKPEDTAVYYCAAEYADYWTYNMGYWGQGTQVTVSS”, which “polyreactivity (PSR sort gate)” value is on record?
Answer: low polyreactivity

Question: Which “polyreactivity (PSR sort gate)” value does the source give for “QVQLVESGGGLVQAGGSLRLSCAASGRTFRFYAMGWYRQAPGKERELVAAITSGGSTTYADSVKGRFTISRDNAKNTVYLQMNSLKPEDTAVYYCNADRARAYDYWGQGTQVTVSS” here?
Answer: high polyreactivity

Question: With “QVQLVESGGGLVQAGGSLRLSCAASGRTFRGYAMGWYRQAPGKERELVAAISASGGSTYYADSVKGRFTISRDNAKNTVYLQMNSLKPEDTAVYYCAARFWFTKGYDYWGQGTQVTVSS” as the sequence, how does the “polyreactivity (PSR sort gate)” value read?
Answer: high polyreactivity

Question: For “QVQLVESGGGLVQAGGSLRLSCAASGRTFRGYAMGWYRQAPGKERELVAAISSGGSTYYADSVKGRFTISRDNAKNTVYLQMNSLKPEDTAVYYCAVAYYPHGREGAHFQYGYDYWGQGTQVTVSS”, which “polyreactivity (PSR sort gate)” value is on record?
Answer: low polyreactivity

Question: For “QVQLVESGGGLVQAGGSLRLSCAASGRTFRHDGMGWYRQAPGKERELVAAISRSGGRTYYADSVKGRFTISRDNAKNTVYLQMNSLKPEDTAVYYCNAPYDVTTYAFDYWGQGTQVTVSS”, which “polyreactivity (PSR sort gate)” value is on record?
Answer: high polyreactivity

Question: With “QVQLVESGGGLVQAGGSLRLSCAASGRTFRIYAMGWYRQAPGKERELVAAITWGGGSTYYADSVKGRFTISRDNAKNTVYLQMNSLKPEDTAVYYCARVGWSWPRREKYNYWGQGTQVTVSS” as the sequence, how does the “polyreactivity (PSR sort gate)” value read?
Answer: high polyreactivity

Question: Which “polyreactivity (PSR sort gate)” value does the source give for “QVQLVESGGGLVQAGGSLRLSCAASGRTFRIYAMGWYRQAPGKERELVATISGRGGNTYYADSVKGRFTISRDNAKNTVYLQMNSLKPEDTAVDYCAADDATAYRVDGFKYDYWGQGTLVTVSS” here?
Answer: high polyreactivity

Question: For “QVQLVESGGGLVQAGGSLRLSCAASGRTFRIYARGWSRQAPGKERELDAAITKRGGITYYADSVKGRFTISRDNAQNTVYLQMNSLKPEDTAVYYCAKAWKSWSRISKSTFYWTSGDYWGQGTQVTVSS”, which “polyreactivity (PSR sort gate)” value is on record?
Answer: high polyreactivity

Question: Which “polyreactivity (PSR sort gate)” value does the source give for “QVQLVESGGGLVQAGGSLRLSCAASGRTFRKFAMGWYRQAPGKERELVAASSWSGGSTYYANSVKGRFTISRDNAKNTVYLQMNSLKPDDTAVYYCAAVPVHTGSLYWGFTTGYDYWGQGTQVTVSS” here?
Answer: low polyreactivity

Question: Which “polyreactivity (PSR sort gate)” value does the source give for “QVQLVESGGGLVQAGGSLRLSCAASGRTFRKYAMGWYRQAPGKERELVAAISWSGGSRYYANSVKGRFTISRDNAKNTVYLQMNSLKPEETAVYYCSAVPVHTGSLYWGFTTGYDYWGQGTQVTVSS” here?
Answer: low polyreactivity

Question: For “QVQLVESGGGLVQAGGSLRLSCAASGRTFRKYAMGWYRQAPGKERELVAAISWSGGSTYYANSVKGRFTISRDNAKNTVYLQMNSLKPEDTAVYYCAAVPVHTGSLYWGFTTGYDYWGQGTQVTVSS”, which “polyreactivity (PSR sort gate)” value is on record?
Answer: low polyreactivity

Question: Which “polyreactivity (PSR sort gate)” value does the source give for “QVQLVESGGGLVQAGGSLRLSCAASGRTFRLNAMGWYRQAPGKERELVARITGSSGGSTYYADSVKGRFTISRDNAKNTVYLQMNSLKPEDTAVYYCNKRVGFLYKYDYWGQGTQVTVSS” here?
Answer: high polyreactivity

Question: With “QVQLVESGGGLVQAGGSLRLSCAASGRTFRLYAMGWYRHAPGKERELVAAISRRGGSTYYADSVKGRFTISRDNAKNTVYLQMNSLKPEDTAVYYCAKGLGSGQEIYGYDYWGQGTQVTVSS” as the sequence, how does the “polyreactivity (PSR sort gate)” value read?
Answer: high polyreactivity

Question: With “QVQLVESGGGLVQAGGSLRLSCAASGRTFRLYAMGWYRQAPGKVRELGAAITRGGRTNYADSVKGRFTISRDNAKNTVYLQMNSLKPEDTALYYCAARYVERHTDYYYWGQGTQVTVSS” as the sequence, how does the “polyreactivity (PSR sort gate)” value read?
Answer: low polyreactivity

Question: Which “polyreactivity (PSR sort gate)” value does the source give for “QVQLVESGGGLVQAGGSLRLSCAASGRTFRNNAMGWYRQAPGKEREFVAVISNTGGSTYYADSVKGRFTISRDNAKNTVYLQMYSLKPEDTAVYYCAVRPRYSQYYYWGQGTQVTVSS” here?
Answer: high polyreactivity

Question: For “QVQLVESGGGLVQAGGSLRLSCAASGRTFRNYAMGWYRPAPGKERELVAAITWSGGSTYYADSVKGRFTISRDNAKNTVYLQMNSLKPEDTAVYYCNVRSYTRTYNYWGQGTQVTVSS”, which “polyreactivity (PSR sort gate)” value is on record?
Answer: high polyreactivity

Question: Which “polyreactivity (PSR sort gate)” value does the source give for “QVQLVESGGGLVQAGGSLRLSCAASGRTFRPNVMGWYRQAPGKERELVAAISNGGRTYYADSVKGRFTISRDNAKNTVFLQMNCLKAEYTAVYYCNKVRSPWYDYWVQGTQVTVSS” here?
Answer: high polyreactivity

Question: Which “polyreactivity (PSR sort gate)” value does the source give for “QVQLVESGGGLVQAGGSLRLSCAASGRTFRPYAMGWYRPAPGKERELVAAISYRGGITNYADSVKGRFTISRDNAKNTVYLKMNSLKPEDTAVYYCNRYAIWVSRYSDLDYWGQGTEVTVSS” here?
Answer: low polyreactivity

Question: Which “polyreactivity (PSR sort gate)” value does the source give for “QVQLVESGGGLVQAGGSLRLSCAASGRTFRPYAMGWYRQAPGKERELVAAISSGGSTYYADSVKGRFTISRDNAKNTVYLQMNSLKPEDTAVYYCNAVGLWARDYGYWGQGTQVTVSS” here?
Answer: high polyreactivity

Question: For “QVQLVESGGGLVQAGGSLRLSCAASGRTFRRNAMGWYRQAPGKERELVAAISGGGSTNYADSVKGRFTISRDNAKNTVYLQMNSLKPEDTAVYYCNKRGTIWSGYWGQGTQVTVSS”, which “polyreactivity (PSR sort gate)” value is on record?
Answer: high polyreactivity

Question: Which “polyreactivity (PSR sort gate)” value does the source give for “QVQLVESGGGLVQAGGSLRLSCAASGRTFRRNAMGWYRQAPGKERELVASITRNGGSTYYADSVKGRFTISRDNAKNTVYLQMNILKPEDTAVYYCYKTQPIDLYGYWGQGTQVTVSS” here?
Answer: high polyreactivity

Question: For “QVQLVESGGGLVQAGGSLRLSCAASGRTFRRNAMGWYRQAPGKERELVATISSSGGRTYYADSVKGRFTISRDNAKKTVYFQMNSLKPEDTAVYYCNKALRTYPLFYYWGQGTQVTVSS”, which “polyreactivity (PSR sort gate)” value is on record?
Answer: high polyreactivity

Question: For “QVQLVESGGGLVQAGGSLRLSCAASGRTFRRNVMGWYRQAPGKERELVAAISSGANTNYADSVKGRFTISRDNAKNTVYLQMNSLKPEDTAVYYCNARWQEPLKYDYWGQGTQVTVSS”, which “polyreactivity (PSR sort gate)” value is on record?
Answer: low polyreactivity

Question: With “QVQLVESGGGLVQAGGSLRLSCAASGRTFRRYAMGWYRQAPGKERELVAAISWGAGSTRYADSVKGRFTISRDNAKNTVYLQMNSLKPEDTAVYYCAAENTRAYGMYYWGQGTQVTVSS” as the sequence, how does the “polyreactivity (PSR sort gate)” value read?
Answer: high polyreactivity

Question: For “QVQLVESGGGLVQAGGSLRLSCAASGRTFRRYAMGWYRQAPGKERELVAAISYSGTTTYYADSVKGRFTISRDNAKNTVYLQMNSLKPEDTAVYYCNKATAFGLDYWGQGTQVTVSS”, which “polyreactivity (PSR sort gate)” value is on record?
Answer: high polyreactivity

Question: With “QVQLVESGGGLVQAGGSLRLSCAASGRTFRRYAMGWYRQAPGKERELVATIRSGDNTNYADSVKGRFTISRDNAKNTVYLQMNSLKPEDTAVYYCNRSPKSGQVTYLYSVNAHYDYWGQGTQVTVSS” as the sequence, how does the “polyreactivity (PSR sort gate)” value read?
Answer: low polyreactivity

Question: For “QVQLVESGGGLVQAGGSLRLSCAASGRTFRRYFMGWYRQAPGKERELVAAISGGGGSTYYAGSVKGRFTISRDNAKNTVYLQMNSLKPEDTAVYYCAARIGWYQYWGYPTSYGYWGQGTQVTVSS”, which “polyreactivity (PSR sort gate)” value is on record?
Answer: high polyreactivity

Question: With “QVQLVESGGGLVQAGGSLRLSCAASGRTFRRYTMGWYRPAPGKERELVAAITTSGGSTYYADSVKGRFTLSRDNAKNTVYLQMNSLKPEDTAVYYCAATRRYSGDYWGQGTQVTVSS” as the sequence, how does the “polyreactivity (PSR sort gate)” value read?
Answer: high polyreactivity

Question: Which “polyreactivity (PSR sort gate)” value does the source give for “QVQLVESGGGLVQAGGSLRLSCAASGRTFRSNAMGWDRQAPGKEREFVAAISSGGSTKYADSVKGRFTISRDNAKNTVYLQMNSLKPEDTAVYYCAAVSHSRYWGQGTQVTVSS” here?
Answer: high polyreactivity

Question: Which “polyreactivity (PSR sort gate)” value does the source give for “QVQLVESGGGLVQAGGSLRLSCAASGRTFRSNAMGWYRQAPGKERELVAAISKRGASTYYADSVKGRFTISRDNAKNTVYLQMNSLKPEVTAVYYCNTGAAKHAYDYWGQGTQVTVSS” here?
Answer: high polyreactivity

Question: Which “polyreactivity (PSR sort gate)” value does the source give for “QVQLVESGGGLVQAGGSLRLSCAASGRTFRSNAMGWYRQAPGKERELVAAISNSGASTYYADSVKGRFTISRDNAKNTFYLQMNSLKPEDTAVYYCAADYYRPYRYDYWGQGTQVTVSS” here?
Answer: high polyreactivity

Question: For “QVQLVESGGGLVQAGGSLRLSCAASGRTFRSNAMGWYRQAPGKERELVAAITRSGGNTYYADSVKGRFTISRDTAKNTVYLQMNSLKPEDTAVYYCADRYSNPWARVSGYDYWGQGTQVTVSS”, which “polyreactivity (PSR sort gate)” value is on record?
Answer: high polyreactivity

Question: For “QVQLVESGGGLVQAGGSLRLSCAASGRTFRSYAMGWYRQAPGKERELVATITRGSSTNYADSGKGRFTISRDNAKNTVYLQMNSLKPEDTAVYYCNADGKPPYISWLYDYWGQGTQVTVSS”, which “polyreactivity (PSR sort gate)” value is on record?
Answer: low polyreactivity

Question: With “QVQLVESGGGLVQAGGSLRLSCAASGRTFRTNAMGWYRQAAGKERELVAAIRASTGSTYYADSVKGRFTMSRDNAKNTVYLQMNSLKPEDTAVYYCAARLRRGLTATWYYYWGQGTQVTVSS” as the sequence, how does the “polyreactivity (PSR sort gate)” value read?
Answer: high polyreactivity

Question: With “QVQLVESGGGLVQAGGSLRLSCAASGRTFRTNAMGWYRQAPGKERELVAAITSDGTYYADSVKGRFTISRDNAKNTVYLQMNSLKPEDTAVYYCNVDDRETRDDYWGQGTQVTVSS” as the sequence, how does the “polyreactivity (PSR sort gate)” value read?
Answer: low polyreactivity

Question: With “QVQLVESGGGLVQAGGSLRLSCAASGRTFRTNAMGWYRQAPGKESELVADITYSGDSTYDADSVKGRFTISRDNAKNNVYLQMNSLKPEDTAVYYCNARLLSGPGYDYWGQGTQVTVSS” as the sequence, how does the “polyreactivity (PSR sort gate)” value read?
Answer: low polyreactivity

Question: With “QVQLVESGGGLVQAGGSLRLSCAASGRTFRTNTMGWYRQAPGKERELVAAIRYIGGSTYYADSVKGRFTISRDNAKNTVYLQMNSLKPEDTAVYYCAAYRYGSRYGYEYWGQGTQVTVSS” as the sequence, how does the “polyreactivity (PSR sort gate)” value read?
Answer: high polyreactivity
